Assay results published in US7541141B2, “Method of using estrogen-related receptor alpha (ERRα) status to determine prognosis, treatment strategy and predisposition to breast cancer, and method of using ERRα as a therapeutic target for the treatment of breast cancer” (Wisconsin Alumni Research Foundation, priority 1997, dated 2009).

Tests used:
ERRγ = ERRγ (Homo sapiens, UniProt P62508); conditions: cell-based assays; cited from earlier work
[1] = system: ERE-dependent transcription in HeLa cells; test: p3xERE-TK-luc luciferase reporter, transient transfection; assay type: cell-based, human; conditions: whole FBS
Procedure: Transient Transfections and Luciferase Assays: To assess the role ERRα plays in regulating transcription of an ERE-containing promoter, MCF-7 or HeLa cells grown in 12-well tissue culture plates were co-transfected in parallel with 0.5 μg of pTK-luc versus p3xERE-TK-luc along with the indicated amounts of the empty cloning vector pcDNA3.1, the ERRα1 expression plasmid pcDNA3.1-hERRα1, or mutant variants thereof. Transfections were performed with the aid of the TransIT LT1 transfection reagent (PanVera, Madison, Wis.) as previously described (35). To examine the effects of ER ligands, […] (E2) (Sigma) or the pure anti-estrogen ICI-182,780 (Astra Zeneca, London, UK) dissolved in ethanol and diluted in medium to obtain the indicated concentrations. Cells were harvested 48 h post-transfection, and lysates were assayed for luciferase activity normalized to protein concentration as previously described (36).
ERRα Activates Transcription in HeLa Cells: Our finding that ERRα represses transcription from an ERE-controlled promoter was somewhat surprising since most reports in the literature conclude that ERR family members function as transcriptional activators of ERE-dependent transcription (17-31). […]

[2] = system: ERE-dependent transcription in MCF-7 cells; test: as above; assay type: cell-based, human
Procedure: (§1) Transient Transfections and Luciferase Assays: To assess the role ERRα plays in regulating transcription of an ERE-containing promoter, MCF-7 or HeLa cells grown in 12-well tissue culture plates were co-transfected in parallel with 0.5 μg of pTK-luc versus p3xERE-TK-luc along with the indicated amounts of the empty cloning vector pcDNA3.1, the ERRα1 expression plasmid pcDNA3.1-hERRα1, or mutant variants thereof. Transfections were performed with the aid of the TransIT LT1 transfection reagent (PanVera, Madison, Wis.) as previously described (35). To examine the effects of ER ligands, cells were maintained in stripped medium for 48 h before transfection and the addition of 17β-estradiol (E2) (Sigma) or the pure anti-estrogen ICI-182,780 (Astra Zeneca, London, UK) dissolved in ethanol and diluted in medium to obtain the indicated concentrations. Cells were harvested 48 h post-transfection, and lysates were assayed for luciferase activity normalized to protein concentration as previously described (36).
ERRα Represses Transcription in MCF-7 Cells: Because ERRα can interfere with the binding of ERα to this ERE, might it affect estrogen-responsive transcription? To answer this question, we co-transfected ERα-positive mammary MCF-7 cells in parallel with p3xERE-TK-luc, a reporter plasmid containing three tandem copies of this ERE (FIG. 14A) or the ERE-negative control plasmid, pTK-luc, together with 0.12 or 0.25 μg of the ERRα1 expression plasmid, pcDNA3.1-hERRα1, or the empty parental expression plasmid, pcDNA3.1. After incubation for 48 h in medium containing whole FBS, the cells were harvested and assayed for luciferase activity. The presence of the EREs conferred an about 150-fold increase in transcriptional activity above the level observed in the cells transfected with the ERE-negative reporter plasmid (FIG. 14B). […] Thus, ERRα inhibits the estrogen-responsive activation of transcription from this ERE-containing promoter in this ER-positive MCF-7 cell line.
ERRα Modulates Estrogen-responsiveness in MCF-7 Cells: To directly examine the effect of ERRα on the response to estrogen, MCF-7 cells were cultured in medium containing estrogen-free charcoal-stripped FBS and cotransfected as described above but in the absence or presence of E2. […] Once again, overexpression of ERRα repressed ERE-dependent transcription approximately 3-fold while having little if any effect on transcription of the control reporter (FIG. 15A).

ERRα = molecular target: T1, ERRα (Homo sapiens, UniProt P11474); conditions: cited from earlier work
T1 sequence (P11474 1-423): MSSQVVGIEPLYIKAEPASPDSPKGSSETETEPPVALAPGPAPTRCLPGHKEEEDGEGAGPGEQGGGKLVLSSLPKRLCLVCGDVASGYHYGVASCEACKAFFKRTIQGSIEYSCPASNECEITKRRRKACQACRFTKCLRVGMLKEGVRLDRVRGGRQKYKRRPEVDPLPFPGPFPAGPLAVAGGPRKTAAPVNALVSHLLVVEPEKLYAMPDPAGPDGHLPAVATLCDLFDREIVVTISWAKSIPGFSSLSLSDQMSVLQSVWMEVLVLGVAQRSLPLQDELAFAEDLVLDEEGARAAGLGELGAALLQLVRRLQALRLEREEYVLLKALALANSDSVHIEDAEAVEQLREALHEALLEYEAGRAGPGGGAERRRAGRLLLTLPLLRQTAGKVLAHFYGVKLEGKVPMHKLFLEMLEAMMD

[3] = system: ERE-independent TK-luc transcription in MCF-7 cells; test: pTK-luc ERE-negative control luciferase reporter, transient transfection; assay type: cell-based, human; conditions: whole FBS, 48 h
Procedure: as §1

[4] = 0.12 or 0.25 μg expression plasmid, whole FBS, 48 h

Chain of ERRγ (P62508 whole entry): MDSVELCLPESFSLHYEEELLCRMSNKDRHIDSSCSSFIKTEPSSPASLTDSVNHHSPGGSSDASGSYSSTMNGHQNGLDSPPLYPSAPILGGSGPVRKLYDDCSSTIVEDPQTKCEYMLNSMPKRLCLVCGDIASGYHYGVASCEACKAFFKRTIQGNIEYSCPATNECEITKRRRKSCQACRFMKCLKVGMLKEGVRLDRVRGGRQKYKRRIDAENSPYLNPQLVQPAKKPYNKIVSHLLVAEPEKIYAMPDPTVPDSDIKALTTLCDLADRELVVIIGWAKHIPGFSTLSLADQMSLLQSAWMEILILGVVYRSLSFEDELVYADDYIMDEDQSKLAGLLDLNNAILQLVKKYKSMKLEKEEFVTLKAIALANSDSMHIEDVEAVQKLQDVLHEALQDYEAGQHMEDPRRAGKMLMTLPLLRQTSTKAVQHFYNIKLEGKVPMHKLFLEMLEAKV

## 4-hydroxytamoxifen
ERRγ
  Effect on ERRγ (literature): selectively antagonizes ERRγ

## C[C@]12CC[C@@H]3c4ccc(O)cc4C[C@@H](CCCCCCCCC[S+]([O-])CCCC(F)(F)C(F)(F)F)[C@H]3[C@@H]1CC[C@@H]2O (some centres unmarked) [ICI-182,780, reference compound]
[1]
  Effect of anti-estrogen on ERE-dependent activity: completely insensitive
[2]; 1×10^−6 M, charcoal-stripped FBS plus 1×10^−8 M E2
  Effect of anti-estrogen on ERE-dependent activity: extremely sensitive
[2]; 1×10^−6 M, charcoal-stripped FBS plus 1×10^−10 M E2
  Effect of anti-estrogen on E2 induction of ERE reporter: completely eliminated
[2]; 1×10^−6 M, charcoal-stripped FBS, no exogenous E2
  Effect of anti-estrogen on ERE-dependent activity: largely ablated
[2]; 1×10^−6 M, medium with whole FBS
  Effect of anti-estrogen on ERE-dependent activity: extremely sensitive

## ClC1=C(Cl)C2(Cl)C3C(Cl)C(Cl)CC3C1(Cl)C2(Cl)Cl (centres unmarked) [chlordane]
ERRα
  Effect on ERRα activity (literature): decrease the activity of ERRα

## CC1(C)C(C(Cl)Cl)C2(Cl)C(Cl)C(Cl)C1(Cl)C2(Cl)Cl (centres unmarked) [toxaphene]
ERRα
  Effect on ERRα activity (literature): decrease the activity of ERRα

B1: ERRα: wild-type human ERRα1 overexpressed from plasmid pcDNA3.1-hERRα1 (protein)
chain: MSSQVVGIEPLYIKAEPASPDSPKGSSETETEPPVALAPGPAPTRCLPGHKEEEDGEGAGPGEQGGGKLVLSSLPKRLCLVCGDVASGYHYGVASCEACKAFFKRTIQGSIEYSCPASNECEITKRRRKACQACRFTKCLRVGMLKEGVRLDRVRGGRQKYKRRPEVDPLPFPGPFPAGPLAVAGGPRKTAAPVNALVSHLLVVEPEKLYAMPDPAGPDGHLPAVATLCDLFDREIVVTISWAKSIPGFSSLSLSDQMSVLQSVWMEVLVLGVAQRSLPLQDELAFAEDLVLDEEGARAAGLGELGAALLQLVRRLQALRLEREEYVLLKALALANSDSVHIEDAEAVEQLREALHEALLEYEAGRAGPGGGAERRRAGRLLLTLPLLRQTAGKVLAHFYGVKLEGKVPMHKLFLEMLEAMMD
[1]; 48 h
  Activation of transcription from p3xERE-TK-luc by overexpression: 2.5 fold
[2]; [4]
  Repression of ERE-dependent transcription by overexpression: 3-4 fold
[2]; charcoal-stripped FBS plus 1×10^−8 M E2
  Inhibition of E2-mediated activation of transcription by overexpression: no longer inhibited
[2]; charcoal-stripped FBS plus 1×10^−10 M E2
  Inhibition of E2-mediated activation of transcription by overexpression: 3-5 fold
[2]; charcoal-stripped FBS, no exogenous E2
  Repression of ERE-dependent transcription by overexpression: approximately 3 fold

B2: ERRα1413A/418A: ERRα1 variant with alanine in place of leucine at amino acids 413 and 418 (NR box) (protein)
chain: MSSQVVGIEPLYIKAEPASPDSPKGSSETETEPPVALAPGPAPTRCLPGHKEEEDGEGAGPGEQGGGKLVLSSLPKRLCLVCGDVASGYHYGVASCEACKAFFKRTIQGSIEYSCPASNECEITKRRRKACQACRFTKCLRVGMLKEGVRLDRVRGGRQKYKRRPEVDPLPFPGPFPAGPLAVAGGPRKTAAPVNALVSHLLVVEPEKLYAMPDPAGPDGHLPAVATLCDLFDREIVVTISWAKSIPGFSSLSLSDQMSVLQSVWMEVLVLGVAQRSLPLQDELAFAEDLVLDEEGARAAGLGELGAALLQLVRRLQALRLEREEYVLLKALALANSDSVHIEDAEAVEQLREALHEALLEYEAGRAGPGGGAERRRAGRLLLTLPLLRQTAGKVLAHFYGVKLEGKVPMHKAFLEMAEAMMD
[2]; [4]
  Repression of ERE-dependent transcription by overexpression: 5-8 fold
[2]; normalized to pTK-luc control
  Repressive effect on ERE-dependent transcription normalized to the control: 10-16 fold
[3]
  Up-regulation of ERE-independent TK-luc transcription by overexpression: approximately 2 fold

B3: ERRα1P-box: ERRα1 variant with E97G/A98S/A101V in the P-box, unable to bind DNA (protein)
chain: MSSQVVGIEPLYIKAEPASPDSPKGSSETETEPPVALAPGPAPTRCLPGHKEEEDGEGAGPGEQGGGKLVLSSLPKRLCLVCGDVASGYHYGVASCGSCKVFFKRTIQGSIEYSCPASNECEITKRRRKACQACRFTKCLRVGMLKEGVRLDRVRGGRQKYKRRPEVDPLPFPGPFPAGPLAVAGGPRKTAAPVNALVSHLLVVEPEKLYAMPDPAGPDGHLPAVATLCDLFDREIVVTISWAKSIPGFSSLSLSDQMSVLQSVWMEVLVLGVAQRSLPLQDELAFAEDLVLDEEGARAAGLGELGAALLQLVRRLQALRLEREEYVLLKALALANSDSVHIEDAEAVEQLREALHEALLEYEAGRAGPGGGAERRRAGRLLLTLPLLRQTAGKVLAHFYGVKLEGKVPMHKLFLEMLEAMMD
[2]; whole FBS, 48 h
  Induction of ERE-dependent transcription by overexpression: 2-3 fold
